Measurements as given in patent publication US12692514B2, “Living cells engineered with polyphenol-functionalized biologically active nanocomplexes” (PRESIDENT AND FELLOWS OF HARVARD COLLEGE, priority 2020, dated 2026).

Assay: In vivo biodistribution after intravenous administration (IVIS)
Set-up: species or system C57BL/6 mice
Conditions: 5 min (0.08 hour) after administration
Protocol: (FIG. 3A) IVIS images of excised mouse lungs 5 min (0.08 hours) after the administration of OVA protein only and OVA/Erythrocyteplex. […] OVA was used for the fluorescence signal. (FIG. 3B) Biodistribution of OVA only and OVA/Erythrocyteplex 5 min after intravenous (IV) administration. (FIG. 3C) Biodistribution of OVA only and OVA/Erythrocyteplex 6 hours after IV administration. (FIG. 3D) Biodistribution of OVA only and OVA/Erythrocyteplex 24 hours after IV administration. (FIG. 3E) Lung to liver ratio of OVA delivered by the control counterpart and OVA/Erythrocyteplex throughout the entire measurement window. (FIG. 3F) Remaining OVA delivered by Erythrocyteplex through the time after 24 hours post-injection. […] Variation is represented by SE (error bars) from three independent replicates for all data points. (FIG. 3G) Confocal florescence microscopy images of lung vascular capillary sections 5 min. […]
Female 50-56 days old C57BL/6 mice (n=3-6 per group) were administered intravenously using a with OVA-Erythrocyteplex coated with 30 ug/mL OVA. […] Each organ was placed in a 6 well tissue culture plate (Falcon); blood (50 μL) was placed in a heparinized microcapillary tube (Drummond Scientific) and far red fluorescence signal for each organ was imaged using Perkin Elmer IVIS small animal imaging system. Far red signals were quantified using LivingImage software.

B1: free OVA: free ovalbumin protein, control counterpart (protein, UniProt P01012 2-386, looked up)
Ovalbumin: GSIGAASMEFCFDVFKELKVHHANENIFYCPIAIMSALAMVYLGAKDSTRTQINKVVRFDKLPGFGDSIEAQCGTSVNVHSSLRDILNQITKPNDVYSFSLASRLYAEERYPILPEYLQCVKELYRGGLEPINFQTAADQARELINSWVESQTNGIIRNVLQPSSVDSQTAMVLVNAIVFKGLWEKAFKDEDTQAMPFRVTEQESKPVQMMYQIGLFRVASMASEKMKILELPFASGTMSMLVLLPDEVSGLEQLESIINFEKLTEWTSSNVMEERKIKVYLPRMKMEEKYNLTSVLMAMGITDVFSSSANLSGISSAESLKISQAVHAAHAEINEAGREVVGSAEAGVDAASVSEEFRADHPFLFCIKHIATNAVLFFGRCVSP
  signal in the liver: strong signal intensities in the liver
